Experimental findings from article doi:10.1101/556266 (bioRxiv, 2019) are described below.

One assay concerns the target T1, GST-ActI-SIPA1L2-1-624 (rat, UniProt Q5JCS6 1-624).
T1 sequence: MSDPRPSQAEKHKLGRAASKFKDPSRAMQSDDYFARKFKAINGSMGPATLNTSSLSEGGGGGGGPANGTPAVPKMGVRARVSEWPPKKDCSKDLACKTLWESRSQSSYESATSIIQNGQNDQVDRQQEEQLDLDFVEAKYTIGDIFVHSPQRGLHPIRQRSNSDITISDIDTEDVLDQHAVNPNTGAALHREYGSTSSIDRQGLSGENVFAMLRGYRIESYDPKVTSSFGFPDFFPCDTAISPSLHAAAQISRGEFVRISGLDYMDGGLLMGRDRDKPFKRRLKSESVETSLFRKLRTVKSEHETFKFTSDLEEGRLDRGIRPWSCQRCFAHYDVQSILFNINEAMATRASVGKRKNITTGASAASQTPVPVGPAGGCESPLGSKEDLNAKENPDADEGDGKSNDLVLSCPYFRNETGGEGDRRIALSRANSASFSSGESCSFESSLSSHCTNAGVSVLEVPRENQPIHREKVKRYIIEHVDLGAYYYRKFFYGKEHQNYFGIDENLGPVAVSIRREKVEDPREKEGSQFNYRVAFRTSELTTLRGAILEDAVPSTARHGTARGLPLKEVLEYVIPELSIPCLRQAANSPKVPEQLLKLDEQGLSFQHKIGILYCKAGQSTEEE
The assay can be described thus: pull-down.

The next assay has as its target T2, GST-SIPA1l2-86-99 (rat, UniProt Q5JCS6 86-99).
T2 chain: PKKDCSKDLACKTL
The assay can be described thus: pull-down.

B1: MBP-TrkB-454-821 (domain or fragment)
chain: not shown
Consider B1, for which the binding result in the assay with GST-ActI-SIPA1L2-1-624 is listed as “binds”.

B2: MBP-TrkB-454-465 (peptide)
chain: KLARHSKFGMKG
For the molecule B2, the binding result with GST-SIPA1l2-86-99 was “binds”.
